PMC10318635, “ER Ca^2+ overload activates the IRE1α signaling and promotes cell survival” (Cell & Bioscience, 2023)

Biological target: T1, Flag-tagged IRE1α-LD (UniProt O75460 19-440)
T1 construct: signal peptide in the construct; inositol-requiring enzyme 1 (IRE1α/ERN1), luminal domain (LD), residues 1-440; The signal peptide is probably removed in HEK-293T cells; also called IRE1α-LD-FLAG; LD-FLAG; source: HEK-293T, purified (M2 beads, eluted with Flag peptide, concentrated by ultrafiltration)
T1 sequence (looked up): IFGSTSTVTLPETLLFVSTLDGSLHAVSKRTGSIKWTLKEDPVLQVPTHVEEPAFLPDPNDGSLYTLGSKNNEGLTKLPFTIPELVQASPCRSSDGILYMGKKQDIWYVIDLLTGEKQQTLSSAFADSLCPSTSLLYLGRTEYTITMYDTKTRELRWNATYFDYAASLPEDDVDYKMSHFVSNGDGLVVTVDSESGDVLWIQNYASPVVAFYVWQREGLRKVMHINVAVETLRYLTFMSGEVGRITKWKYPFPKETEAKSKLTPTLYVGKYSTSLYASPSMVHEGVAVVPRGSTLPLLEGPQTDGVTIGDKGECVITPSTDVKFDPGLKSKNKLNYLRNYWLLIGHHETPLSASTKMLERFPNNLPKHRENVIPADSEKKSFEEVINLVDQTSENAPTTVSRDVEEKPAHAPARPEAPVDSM
Experiment: pull-down; GST-BiP-NBD immobilized on glutathione Sepharose 4B beads, incubated with IRE1α-LD-FLAG eluate in buffer B (50 mM HEPES, 75 mM NaCl, 10% glycerol, 1 mM TCEP, pH 7.5) with 0.5 or 0.8 mM Ca2+, room temperature, 2 h; anti-FLAG immunoblot
Details: both partners purified

binding result: binds
B1: GST-tagged BiP-nucleotide binding domain (NBD) (domain or fragment)
chain: not shown
notes: also called GST-BiP-NBD; BiP-NBD; source: bacterially purified, immobilized on glutathione Sepharose 4B beads
